In patent publication US20160220669A1 (Hoffmann-La Roche, published 2016):
Changes are numbered by the printed parent chain.

B1: Mab 2F11 (antibody, V domains shown)
VH: QVQLKESGPGLVAPSQSLSITCTVSGFSLTTYDISWIRQSPGKGLEWLGVIWTDGGTNYNSPFMSRLSIRKDNSKSQVFLKMNRLQTDDTAIYYCVRDQRLYFDVWGAGTTVTVSS
VL: NIVMTQSPKSMSMSVGERVTLNCKASEDVNTYVSWYQQQPEQSPKLLIYGASNRYTGVPDRFTGGGSTTDFTLTISSVQAEDLADYFCGQSFSYPTFGTGTKLEIK
B2: Mab 2E10 (antibody, V domains shown)
VH: QVQLKESGPGLVAPSKSLSITCTVSGSSLDSFDISWIRQSPGKGLEWLGVIWTGGGTNYNSGFMSRLRITKDNSKSQVLLKMNSLQSDDTAIYYCVRDPRLYFDVWGAGTTVTVSS
VL: B1 VL with N22S, N30V, Q39K, E41D, G65S, T68A, F87Y, S91T
B3: Mab 1G10 (antibody, V domains shown)
VH: B1 VH with Q1R, T31S, T53S, D54G, S68R, R70S, N73D, K75R, M82V, Q99L
VL: KIVMTQSPKSMSVSVGERVSLSCKASEDVGTYVSWYQQKPEQSPKLLIYGSSNRYTGVPDRFTGSGSATDFTLTISSVQAEDLADYSCGQSFTYPTFGTGTKLEIK
B4: Mab 2H7 (antibody, V domains shown)
VH: B2 VH with S40P, T70S, L79F, N83S
VL: B1 VL with N22S, N30V, Q39K, G65S, T68A, V78I, F87Y, S91T

target: human wildtype CSF-1R (full-length) (human, UniProt P07333 20-972); assay: cell-based or functional assay

**Q.** How did the “% inhibition 10 µg/ml antibody concentration (BeWo cells, CSF-1 induced growth)” value turn out when B1 was run?
**A.** 70%

**Q.** Which “% inhibition 10 µg/ml antibody concentration (BeWo cells, CSF-1 induced growth)” value does the source give for B2 here?
**A.** 102%

**Q.** How did the “% inhibition 10 µg/ml antibody concentration (BeWo cells, CSF-1 induced growth)” value turn out when B3 was run?
**A.** 99%

**Q.** B4 was tested. Which “% inhibition 10 µg/ml antibody concentration (BeWo cells, CSF-1 induced growth)” value did it give?
**A.** 103%

target: CSF-1R of cynomolgous monocytes (cynomolgous); assay: cell-based or functional assay

**Q.** With B1 as the binder, how does the “% survival (cynomolgous monocytes with huCSF-1, 5 µg/ml antibody)” value (“% survival” below) read?
**A.** 4%

**Q.** How did the “% survival” value turn out when B2 was run?
**A.** 17%

**Q.** Which “% survival” value does the source give for B3 here?
**A.** 2%

**Q.** With B4 as the binder, how does the “% survival” value read?
**A.** 8%
